We go through 21 sequences from the supplement of paper PMC10724198.

± gives the standard deviation of the averaged measurements.

Common to all, as to assay: protein stability index of tFT-peptide fusion (C-terminal peptide) (PSI (0-1 scale)); higher = more stable (slower turnover)
Series [1] deals with Saccharomyces cerevisiae. To be noted: temperature: 30 C. The protocol:
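MPS profiling in S. cerevisiae of the yeast C-terminome library: the last 12 aa of each annotated ORF are fused to the C-terminus of a sfGFP-mCherry timer, after a GGGS linker. Cells are FACS-sorted into 8 mCherry/sfGFP bins and deep-sequenced. PSI runs from 0 (unstable) to 1 (stable); wild type and das1Δ backgrounds, two technical replicates each.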

The test system of series [2] is Saccharomyces cerevisiae. To be noted: genetic background: wild type; temperature: 30 C.
For series [3], the system named is Saccharomyces cerevisiae. The protocol: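 MPS profiling in S. cerevisiae of the tFT-X12 degron library: putative degron peptides plus stable controls, 12 aa, fused to the C-terminus of a sfGFP-mCherry timer. Cells are FACS-sorted into 8 mCherry/sfGFP bins and deep-sequenced. PSI runs from 0 (unstable) to 1 (stable). Backgrounds are wild type, das1Δ and doa10Δ at 30 °C, and wild type, das1Δ, cdc34-1 and cdc53-1 at 37 °C; 2-3 technical replicates each.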

Where [4] appears, read: genetic background: das1 deletion.
The mark [5] stands for this setting: genetic background: cdc34-1, temperature: 37 C.
Setting [6] is: genetic background: cdc53-1, temperature: 37 C.
Setting [7] is: genetic background: das1 deletion, temperature: 30 C.
[8] abbreviates: genetic background: das1 deletion, temperature: 37 C.
[9] abbreviates: genetic background: doa10 deletion, temperature: 30 C.
[10] abbreviates: genetic background: wild type, temperature: 30 C.
Setting [11] is: genetic background: wild type, temperature: 37 C.

As for ASKESSKEDVAN [MUM2 C-terminal 12 aa], the protein stability index was 0.69 ± 0.0096 with Saccharomyces cerevisiae [1] (setting [4]) and 0.661 ± 0.032 with Saccharomyces cerevisiae [1] (genetic background: wild type).
For the sequence ASQAKNSIEDDV [GTR2 C-terminal 12 aa], the protein stability index in the series with Saccharomyces cerevisiae [1] (setting [4]) was 0.721 ± 0.021; in the series on Saccharomyces cerevisiae [1] (genetic background: wild type) it was 0.689 ± 0.031.
The like results for ASREREKRRQSE [VAN1 C-terminal 12 aa] were, in that order, 0.724 ± 0.0075 and 0.76362 ± 0.00071.
On to ATAREWTKKYAV [UBC4 C-terminal 12 aa], for which the protein stability index was determined as 0.702 ± 0.0071 with Saccharomyces cerevisiae [1] (setting [4]) and 0.7122 ± 0.0016 in the series with Saccharomyces cerevisiae [1] (genetic background: wild type).
As for ATCGSSTYFARK [MCO8 C-terminal 12 aa], the figures for the protein stability index in the series with Saccharomyces cerevisiae [1] (setting [4]) and in the series with Saccharomyces cerevisiae [1] (genetic background: wild type) were 0.6938 ± 0.0026 and 0.746 ± 0.054, respectively.
For “ATPQKRTGPARG [YER088C-A C-terminal 12 aa]”, in that order: 0.68 ± 0.018 and 0.66 ± 0.018.
For ATSILLWYSNYS [CNM1 C-terminal 12 aa], in that order: 0.739 ± 0.013 and 0.6973 ± 0.00096.
With AVIGVYGEGQFI [ATG33 C-terminal 12 aa], the protein stability index in the series with Saccharomyces cerevisiae [1] (setting [4]) is 0.6986 ± 0.0067; in the series on Saccharomyces cerevisiae [1] (genetic background: wild type) it was 0.693 ± 0.049.
Regarding AVNTLLWQEQYS [YDR042C C-terminal 12 aa], the protein stability index in the series with Saccharomyces cerevisiae [1] (setting [4]) came to 0.739 ± 0.017; in the series on Saccharomyces cerevisiae [1] (genetic background: wild type), 0.751 ± 0.13.
Consider AWSYLARQVLYY [YGR176W C-terminal 12 aa], for which the protein stability index with Saccharomyces cerevisiae [1] (setting [4]) was determined as 0.6986 ± 0.0046; in the series on Saccharomyces cerevisiae [1] (genetic background: wild type) it was 0.688 ± 0.032.
As for AYEFDGDKVIVG [RIP1 C-terminal 12 aa], the results for the protein stability index in the series on Saccharomyces cerevisiae [1] (setting [4]) and with Saccharomyces cerevisiae [1] (genetic background: wild type) were 0.704 ± 0.018 and 0.6846 ± 0.0025, respectively.
In the case of AYSLQEGSVVAI [SIF2 C-terminal 12 aa], the protein stability index is 0.7139 ± 0.0064 with Saccharomyces cerevisiae [1] (setting [4]) and 0.696 ± 0.047 in the series on Saccharomyces cerevisiae [1] (genetic background: wild type).
For CDSEMFASSKDE [ERI1 C-terminal 12 aa], in that order: 0.698 ± 0.0072 and 0.74 ± 0.053.
Turning to CFPDDIFEYAVE [GLG1 C-terminal 12 aa], the protein stability index in the series on Saccharomyces cerevisiae [1] (setting [4]) was found to be 0.768 ± 0.015; in the series with Saccharomyces cerevisiae [1] (genetic background: wild type) it was 0.76 ± 0.0098.
For CGKCHSVYKVNA [RPS31 C-terminal 12 aa], in that order: 0.70314 ± 0.00059 and 0.624 ± 0.041.
On to CGLDGKIVIYTI [ARC40 C-terminal 12 aa], for which the protein stability index in the series on Saccharomyces cerevisiae [1] (setting [4]) came to 0.6819 ± 0.0035; in the series with Saccharomyces cerevisiae [1] (genetic background: wild type), 0.6704 ± 0.0027.
For CKSNKKHKQRQG [RTC6 C-terminal 12 aa], in that order: 0.701 ± 0.031 and 0.601 ± 0.02.
On to CKTLNYARPQSN [BNA1 C-terminal 12 aa], for which the protein stability index in the series with Saccharomyces cerevisiae [1] (setting [4]) amounted to 0.6906 ± 0.0025; in the series on Saccharomyces cerevisiae [1] (genetic background: wild type), 0.727 ± 0.031.
With YAFYLFSRILAA, the protein stability index was found to be 0.2795 ± 0.00053 with Saccharomyces cerevisiae [2]; 0.232 ± 0.0091 with Saccharomyces cerevisiae [3] (setting [5]); 0.302 ± 0.075 in the series with Saccharomyces cerevisiae [3] (setting [6]); 0.236 ± 0.025 with Saccharomyces cerevisiae [3] (setting [7]); 0.3486 ± 0.0015 in the series on Saccharomyces cerevisiae [3] (setting [8]); 0.1792 ± 0.0014 in the series with Saccharomyces cerevisiae [3] (setting [9]). Also, the protein stability index turned out to be 0.208 ± 0.016 in the series with Saccharomyces cerevisiae [3] (setting [10]) and 0.285 ± 0.013 in the series on Saccharomyces cerevisiae [3] (setting [11]).
Regarding YALVQHRWVYYF, the protein stability index in the series with Saccharomyces cerevisiae [2] amounted to 0.119 ± 0.031; with Saccharomyces cerevisiae [3] (setting [5]) it was 0.4 ± 0.0056; in the series on Saccharomyces cerevisiae [3] (setting [6]), 0.633 ± 0.061; with Saccharomyces cerevisiae [3] (setting [7]), 0.625 ± 0.019; in the series on Saccharomyces cerevisiae [3] (setting [8]), 0.724 ± 0.011; in the series on Saccharomyces cerevisiae [3] (setting [9]), 0.0888 ± 0.011. Also, the protein stability index with Saccharomyces cerevisiae [3] (setting [10]) was found to be 0.0761 ± 0.011; with Saccharomyces cerevisiae [3] (setting [11]), 0.0856 ± 0.0031.
Regarding YCFLSWVLMCCF, the protein stability index came out at 0.406 ± 0.022 with Saccharomyces cerevisiae [2]; 0.457 ± 0.019 in the series on Saccharomyces cerevisiae [3] (setting [5]); 0.4613 ± 0.0037 in the series on Saccharomyces cerevisiae [3] (setting [6]); 0.399 ± 0.018 with Saccharomyces cerevisiae [3] (setting [7]); 0.438 ± 0.011 in the series with Saccharomyces cerevisiae [3] (setting [8]); 0.421 ± 0.025 in the series on Saccharomyces cerevisiae [3] (setting [9]). For the same sequence, the protein stability index in the series with Saccharomyces cerevisiae [3] (setting [10]) amounted to 0.386 ± 0.0065; in the series on Saccharomyces cerevisiae [3] (setting [11]), 0.42 ± 0.0059.
